Substitutions are numbered along the chain they refer to.
Columns and labels:
[1] = target: T1, H1 HA from A/Michigan/45/2015 H1N1, recombinant (Immune Technology) (Influenza A virus A/Michigan/45/2015 …, UniProt A0A1J0CXU0, strain); assay: ELISA
[2] = target: H1 HA from A/Solomon Islands/3/2006 H1N1, recombinant (IRR FR-67) (Influenza A virus A/Solomon …, UniProt A7Y8I1, strain); assay: ELISA
[3] = target: H1 HA from A/Brisbane/59/2007 H1N1, recombinant (IRR FR-65) (Influenza A virus A/Brisbane/59/2007 …, UniProt D5F1Q8, strain); assay: ELISA
[4] = target: H1 HA from A/Norway/3206-3/2009 H1N1, recombinant (IRR FR-697) (Influenza A virus A/Norway/3206-3/2009 …, UniProt C3W5S1, strain); assay: ELISA
[5] = target: H1 HA from A/California/04/2009 H1N1pdm09, recombinant (Immune Technology) (Influenza A virus A/California/04/2009 …, UniProt C3W5S1, strain); assay: ELISA
[6] = target: T1, H1 HA from A/Michigan/45/2015 H1N1, …; assay: BLI

Measured: binding result

B1: 05.GC.w13.02 (antibody, V domains shown)
VH: QVQLVQSGTEVKKPGSSVKVSCKASGVTFSSYAMSWVRQAPGQGLEWMGGFIPILGTANYAQKFQGRLTITADGLTGTVYMELSRLRSEDTAVYYCAREVTWKGASIGVLGIWGQGTMVSVSA
VL: DIQMTQSPSSLSASVGDRVIITCRANQSIGGYLNWYQQKPGKAPNLLIFTASTLQSGVPSRFSGGGSGTDFTLTISSLQPEDFATYYCQQNYNTPRTFGQGTKVDIK
binds: [1] | [2] | [3] | [4] | [5]

B2: 05.GC.w13.02 Fab, His6 tag removed with thrombin (Fab, V domains shown)
VH: B1 VH
VL: B1 VL
binds: [6]

B3: 05.GC.w13.01 (antibody, V domains shown)
VH: QVQLVQSGAEVKKPGSSVKVSCEASGVTFSSYAVSWVRQAPGQGLEWMGGIIPIVGTANYAQKFQGRVTITADGLTSTVYMELSRLRSEDTAVYFCAREATWKGSSIGVLGIWGQGTMVTVSA
VL: B1 VL with I20T, N26S, G30S, G31D, N45S, T50S, G65S, D105E
binds: [1] | [2] | [3] | [4] | [5]

B4: 05.GC.w2.3C10 (antibody, V domains shown)
VH: EVQLVQSGAEVKKPGSSVRVSCKASGGTFSAISWVRQAPGQGLEWMGGIIPVFGTANYAQKFQGRVTITADDSTSTAYMEVSSLRSDDTAVYYCAREETWKGATIGVMGIWGQGTMVTVSS
VL: DIQMTQSPSSLSASVGDRVTITCRASQSISSYLNWYQHKPGKAPKLLIFTASNLQSGVPSRFSGGGSGTDFTLTISSLQPEDFATYYCQQSYTSPRTFGQGTKVEIK
binds: [1] | [2] | [3]

Source: article PMC11211068 (The Journal of Experimental Medicine, 2024)
